Reference: publication PMC8913699, “Overall structure of fully assembled cyanobacterial KaiABC circadian clock complex by an integrated experimental-computational approach” (Communications Biology, 2022)

T1: B6C6 complex (KaiB-KaiC complex formed beforehand and isolated by SEC) (Synechococcus sp. PCC 7942, UniProt Q79PF5 1-102; Q79PF4 1-519, S431 substituted with an aspartate residue)
T1 construct: KaiB, Synechococcus sp; PCC 7942, as m2; KaiC, Synechococcus sp; PCC 7942, phosphorylation mimic with S431 replaced by aspartate, as m3; Oversaturating KaiA was added to this purified complex; the final molar ratio [KaiA]:[KaiB]:[KaiC] was 24:12:6; In the iCM-SANS sample both chains were 75%-deuterated; also called BC complex; B6C6 subcomplex; source: E. coli proteins, purified; KaiB and KaiC …
T1 sequence 1: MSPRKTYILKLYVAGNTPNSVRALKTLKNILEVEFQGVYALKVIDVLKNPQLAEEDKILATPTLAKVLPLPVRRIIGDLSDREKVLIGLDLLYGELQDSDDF
T1 sequence 2: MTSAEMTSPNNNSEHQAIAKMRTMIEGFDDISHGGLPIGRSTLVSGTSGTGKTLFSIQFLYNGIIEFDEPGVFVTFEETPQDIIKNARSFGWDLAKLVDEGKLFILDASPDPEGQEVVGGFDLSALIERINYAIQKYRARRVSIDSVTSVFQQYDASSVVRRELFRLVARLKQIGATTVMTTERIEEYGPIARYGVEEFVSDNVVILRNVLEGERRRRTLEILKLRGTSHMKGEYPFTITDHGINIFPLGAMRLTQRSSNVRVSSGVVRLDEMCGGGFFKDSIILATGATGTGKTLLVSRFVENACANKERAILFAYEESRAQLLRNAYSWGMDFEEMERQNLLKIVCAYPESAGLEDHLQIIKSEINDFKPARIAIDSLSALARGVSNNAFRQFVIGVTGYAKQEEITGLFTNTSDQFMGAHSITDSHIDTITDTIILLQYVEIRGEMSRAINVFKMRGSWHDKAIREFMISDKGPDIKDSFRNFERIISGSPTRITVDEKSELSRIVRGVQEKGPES

B1: KaiA from Synechococcus sp. PCC 7942 (natural protein)
chain: LSQIAICIWVESTAILQDCQRALSADRYQLQVCESGEMLLEYAQTHRDQIDCLILVAANPSFRAVVQQLCFEGVVVPAIVVGDRDSEDPDEPAKEQLYHSAELHLGIHQLEQLPYQVDAALAEFLRLAPVETMADHIMLMGANHDPELSSQQRDLAQRLQERLGYLGVYYKRDPDRFLRNLPAYESQKLHQAMQTSYREIVLSYFSPNSNLNQSIDNFVNMAFFADVPVTKVVEIHMELMDEFAKKLRVEGRSEDILLDYRLTLIDVIAHLCEMYRRSIPRET
notes: KaiA, Synechococcus sp; PCC 7942; Both N- and C-terminal domains were present in the sample, since the study locates the N-terminal domains, so it was probably whole KaiA; Hydrogenated in all samples; also called A2 (homodimer); hA (hydrogenated KaiA); source: E. coli, purified after cleavage of the his-tag
B2: phosphorylation mimic KaiC (S431 substituted with aspartate) from Synechococcus sp. PCC 7942 (natural protein)
chain: T1 sequence 2
notes: KaiC, Synechococcus sp; PCC 7942, phosphorylation mimic with S431 replaced by aspartate; A 75%-deuterated form (dC) was used in the iCM-SANS sample; Buffer contained 1 mM ATP and 5 mM MgCl2; also called C6 (homohexamer); hC; source: E. coli, purified as a Strep-tagged recombinant protein
B3: KaiB from Synechococcus sp. PCC 7942 (natural protein, UniProt Q79PF5 1-102, looked up)
chain: T1 sequence 1
notes: KaiB, Synechococcus sp; PCC 7942; A 75%-deuterated form (dB) was used in the iCM-SANS sample; also called B4 (homotetramer); hB; source: E. coli, purified after cleavage of the GST-tag

Tests used:
[1] = molecular target: the molecule itself; assay: AUC-SAXS; KaiA alone, 1.0 mg/mL, 25 °C; SV-AUC at 60,000 rpm with laboratory SAXS (NANOPIX); experimental profile compared with the crystal dimer and with simulated dimers
[2] = molecular target: T1, B6C6 complex (KaiB-KaiC complex formed …); assay: AUC; sedimentation velocity, Rayleigh interference optics, 60,000 rpm, 30 °C; ternary KaiA-KaiB-KaiC mixture 1.0 mg/mL (KaiA added in excess to SEC-purified B6C6, final 24:12:6); hydrogenated proteins in H2O buffer: 20 mM Tris-HCl pH 8.0, 150 mM NaCl, 5 mM MgCl2, 0.5 mM EDTA, 1 mM DTT, 1 mM ATP; conditions: both partners purified
[3] = molecular target: the molecule itself; assay: as above
[4] = molecular target: B1; assay: as above; conditions: both partners purified
[5] = molecular target: B2; assay: SEC; KaiB and KaiC mixed 9:6 in 20 mM Tris-HCl pH 8.0, 150 mM NaCl, 5 mM MgCl2, 0.5 mM EDTA, 1 mM DTT, 1 mM ATP at 10 °C; complex isolated with SEC; conditions: both partners purified

Binder: B1
stoichiometry N [1]: 2 | stoichiometry N [2]: 12 KaiA protomers per B6C6 complex

Binder: B2
stoichiometry N [3]: 6

Binder: B3
binding result [4]: binds | binding result [5]: binds
